84 variants from the RNAGym collection of RNA variant scans (doi:10.1093/molbev/msab373) can be followed below.

B1: Azoarcus group I ribozyme (parent)
chain: GUGCCUUGCGCCGGGAAACCACGCAAGGGAUGGUGUCAAAUUCGGCGAAACCUAAGCGCCCGCCCGGGCGUAUGGCAACGCCGAGCCAAGCUUCGGCGCCUGCGCCGAUGAAGGUGUAGAGACUAGACGGCACCCACCUAAGGCAAACGCUAUGGUGAAGGCAUAGUCCAGGGAGUGGCGAAAGUCACACAAACCGG

The variants in this data set derive from B1. Nature of the data set: reverse-splicing fitness (ratio to wild type); higher = more active; in vitro selection; Mg2+ level not given. The procedure, abridged: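 An in vitro group I ribozyme library with randomized positions was T7-transcribed and gel-purified. In triplicate, 10 pmol RNA in EPPS pH 7.5 was reacted with 50 pmoles of a 30-nt RNA substrate for 1 h at 37 °C across several added MgCl2 levels (1–48 mM), then stopped with EDTA. Products were reverse transcribed from a substrate-complementary primer, PCR-amplified and sequenced (HiSeq 4000). Fitness is a variant's read proportion after selection over that before, normalised to wild type.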
For C82U A111G A120C C169G, the reverse-splicing fitness came out at 0.00773.
Then C82U A111G A120C C169U, with 0.0118; and C82U A111G A120C C169A, with 0.00806; and C82U A111G A120C C169U U176C, with 0.014.
Consider C82U A111G A120C C169U U176G, for which the reverse-splicing fitness was found to be 0.00349.
Then C82U A111G A120C C169U U176A, with 0.0149; and C82U A111G A120C A145U C150A C169G U176C, with 0.0112; and C82U A111G A120C A145U C150A C169G U176G, with 0.00457.
Then C82U A111G A120C A145U C150A C169G U176A, with 0.0153; and C82U A111G A120C C150G C169U, with 0.00828.
Then C82U A111G A120C C150G C169G, with 0.00713.
Regarding C82U A111G A120C C150G C169A, the reverse-splicing fitness came to 0.0083.
Then C82U A111G A120C A145U C169G, with 0.00646; and C82U A111G A120C A145U C169U, with 0.0104.
On to C82U A111G A120C A145U C169A, for which the reverse-splicing fitness came out at 0.00556.
On to C82U A111G A120G A145C C150U C169U, for which the reverse-splicing fitness worked out at 0.00745.
Then C82U A111G A120G A145C C150U C169A, with 0.0078; and C82U A111G A120G A145C C150U C169G, with 0.00844.
On to C82U A111G A120C C150A U176G, for which the reverse-splicing fitness was 0.00554.
As for C82U A111G A120C C150A U176A, the reverse-splicing fitness was 0.0127.
As for C82U A111G A120C C150A U176C, the reverse-splicing fitness was determined as 0.0187.
Then C82U A111G A120G A145C C150U C169U U176A, with 0.0196.
Then C82U A111G A120G A145C C150U C169U U176G, with 0.00413; and C82U A111G A120G A145C C150U C169U U176C, with 0.0091.
Then C82U A111G A120G A145G C150G C169A, with 0.00895; and C82U A111G A120G A145G C150G C169G, with 0.00721.
With C82U A111G A120G A145G C150G C169U, the reverse-splicing fitness is 0.00855.
Then C82U A111G A120C A145U C169G U176G, with 0.00375; and C82U A111G A120C A145U C169G U176C, with 0.00823.
C82U A111G A120C A145U C169G U176A: the reverse-splicing fitness was 0.00935.
Then C82U A111G A120G A145G C150U C169A U176C, with 0.0148; and C82U A111G A120G A145G C150U C169A U176G, with 0.00562.
Then C82U A111G A120G A145G C150U C169A U176A, with 0.0143; and C82U A111G A120C C169G U176A, with 0.0168; and C82U A111G A120C C169G U176G, with 0.00426.
Then C82U A111G A120C C169G U176C, with 0.0156.
In the case of C82U A111G A120G A145C C150G C169A, the reverse-splicing fitness came to 0.00854.
Then C82U A111G A120G A145C C150G C169G, with 0.00713.
For the variant C82U A111G A120G A145C C150G C169U, the reverse-splicing fitness was determined as 0.00741.
Then C82U A111G A120C A145U C150U C169A U176A, with 0.0106; and C82U A111G A120C A145U C150U C169A U176G, with 0.00488; and C82U A111G A120C A145U C150U C169A U176C, with 0.00827.
Then C82U A111G A120C C150A C169A U176G, with 0.0042; and C82U A111G A120C C150A C169A U176A, with 0.0215.
For C82U A111G A120C C150A C169A U176C, the reverse-splicing fitness came to 0.0156.
Then C82U A111G A120G A145G C169A, with 0.0117; and C82U A111G A120G A145G C169G, with 0.0129.
Then C82U A111G A120G A145G C169U, with 0.011; and C82U A111G A120G A145C C150G C169A U176A, with 0.00781; and C82U A111G A120G A145C C150G C169A U176G, with 0.00439.
Then C82U A111G A120G A145C C150G C169A U176C, with 0.00579; and C82U A111G A120G A145U C169U, with 0.0103; and C82U A111G A120G A145U C169G, with 0.0113.
Consider C82U A111G A120G A145U C169A, for which the reverse-splicing fitness worked out at 0.00841.
On to C82U A111G A120G A145U C169G U176G, for which the reverse-splicing fitness worked out at 0.00372.
Then C82U A111G A120G A145U C169G U176A, with 0.0112; and C82U A111G A120G A145U C169G U176C, with 0.0118; and C82U A111G A120G A145C C150U, with 0.00813.
Then C82U A111G A120G A145C C150G, with 0.00632; and C82U A111G A120G A145C C150A, with 0.00658.
Then C82U A111G A120G A145U C150G C169G, with 0.00704; and C82U A111G A120G A145U C150G C169U, with 0.00832.
For the variant C82U A111G A120G A145U C150G C169A, the reverse-splicing fitness came out at 0.00861.
Then C82U A111G A120C A145U C150A U176G, with 0.0049; and C82U A111G A120C A145U C150A U176C, with 0.0125.
Turning to C82U A111G A120C A145U C150A U176A, the reverse-splicing fitness was found to be 0.0116.
Then C82U A111G A120G A145C C169G U176G, with 0.0039; and C82U A111G A120G A145C C169G U176C, with 0.0158.
With C82U A111G A120G A145C C169G U176A, the reverse-splicing fitness is 0.0238.
For the variant C82U A111G A120C C150A C169A, the reverse-splicing fitness turned out to be 0.0107.
Then C82U A111G A120C C150A C169G, with 0.0102; and C82U A111G A120C C150A C169U, with 0.0114; and C82U A111G A120C A145U C150U C169U U176C, with 0.0124.
Then C82U A111G A120C A145U C150U C169U U176A, with 0.0157; and C82U A111G A120C A145U C150U C169U U176G, with 0.00402; and C82U A111G A120C C150A C169G U176C, with 0.0191.
Turning to C82U A111G A120C C150A C169G U176A, the reverse-splicing fitness was determined as 0.0237.
Then C82U A111G A120C C150A C169G U176G, with 0.00458.
On to C82U A111G A120G A145C C150G U176A, for which the reverse-splicing fitness amounted to 0.00404.
Then C82U A111G A120G A145C C150G U176C, with 0.00614; and C82U A111G A120G A145C C150G U176G, with 0.00261; and C82U A111G A120G A145G C169U U176G, with 0.00414.
Then C82U A111G A120G A145G C169U U176C, with 0.0164; and C82U A111G A120G A145G C169U U176A, with 0.0209.
